T1: human S100A8/A9 heterodimeric antigen, His-tagged (hS100A8/A9-His) (human, UniProt P05109 1-93; P06702 1-114)
T1 sequence 1: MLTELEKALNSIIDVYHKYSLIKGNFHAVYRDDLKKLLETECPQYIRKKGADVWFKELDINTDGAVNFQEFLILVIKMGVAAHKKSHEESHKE
T1 sequence 2: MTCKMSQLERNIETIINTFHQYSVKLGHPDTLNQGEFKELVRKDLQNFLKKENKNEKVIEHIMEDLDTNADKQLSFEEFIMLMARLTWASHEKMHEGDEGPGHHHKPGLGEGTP

B1: CM-104 (antibody, human IgG4 S228P, lambda, V domains shown)
VH: EVQLVESGGGLVQPGGSLRLSCAASGFTFSDYAMSWVRQAPGKGLEWVSAISGSGGSHYYAASVKGRFTISRDNSKNTLYLQMNSLRAEDTAVYYCARKYRPSRVFDAWGQGTLVTVSS
VL: SYELTQPPSVSVAPGQTARITCSGDALGDKYASWYQQKPGQAPVLVIYEDAKRPSGIPERFSGSNSGNTATLTISGTQAEDEADYYCQSNDADAYWVFGGGTKLTVLG
B2: CM-110 (antibody, human IgG4 S228P, lambda, V domains shown)
VH: EVQLVESGGGLVQPGGSLRLSCAASGFTFSSYAMAWVRQAPGKGLEWVSAISGSGGSTYYAASVKGRFTISRDNSKNTLYLQMNSLRAEDTAVYYCARKYRPSRVFDAWGQGTLVTVSS
VL: SYELTQPPSVSVAPGQTARITCSGDALHDKYASWYQQKPGQAPVLVIYEDAKRPSGIPERFSGSNSGNTATLTISGTQAEDEADYYCQSNDADAVWVFGGGTKLTVLG
B3: CM-112 (antibody, human IgG4 S228P, lambda, V domains shown)
VH: EVQLVESGGGLVQPGGSLRLSCAASGFTFSSYAMSWVRQAPGKGLEWVSAISGSGGSHYYAASVKGRFTISRDNSKNTLYLQMNSLRAEDTAVYYCARKYRPSRVFDAWGQGTLVTVSS
VL: SYELTQPPSVSVAPGQTARITCSGDALHDKYASWYQQKPGQAPVLVIYEDAKRPSGIPERFSGSNSGNTATLTISGTQAEDEADYYCQSNDADAVWVFGGGTKLTVLG
B4: CM-115 (antibody, human IgG4 S228P, lambda, V domains shown)
VH: EVQLVESGGGLVQPGGSLRLSCAASGFTWSDYAMSWVRQAPGKGLEWVSAISGSGGSTYYAASVKGRFTISRDNSKNTLYLQMNSLRAEDTAVYYCARKYRPSRVFDAWGQGTLVTVSS
VL: SYELTQPPSVSVAPGQTARITCSGDALGDKYASWYQQKPGQAPVLVIYEDAKRPSGIPERFSGSNSGNTATLTISGTQAEDEADYYCQSNDADAWWVFGGGTKLTVLG
B5: CM-106 (antibody, human IgG4 S228P, lambda, V domains shown)
VH: EVQLVESGGGLVQPGGSLRLSCAASGFTFSDYAMSWVRQAPGKGLEWVSAISGSGGSHYYAASVKGRFTISRDNSKNTLYLQMNSLRAEDTAVYYCARKYRPSRVFDAWGQGTLVTVSS
VL: SYELTQPPSVSVAPGQTARITCSGDALHDKYASWYQQKPGQAPVLVIYEDAKRPSGIPERFSGSNSGNTATLTISGTQAEDEADYYCQSNDADAYWVFGGGTKLTVLG
B6: CM-111 (antibody, human IgG4 S228P, lambda, V domains shown)
VH: EVQLVESGGGLVQPGGSLRLSCAASGFTFSSYAMSWVRQAPGKGLEWVSAISGHGGSTYYAASVKGRFTISRDNSKNTLYLQMNSLRAEDTAVYYCARKYRPSRVFDAWGQGTLVTVSS
VL: SYELTQPPSVSVAPGQTARITCSGDALGDKYAAWYQQKPGQAPVLVIYEDAKRPSGIPERFSGSNSGNTATLTISGTQAEDEADYYCQSNDADAVWVFGGGTKLTVLG
B7: CM-105 (antibody, human IgG4 S228P, lambda, V domains shown)
VH: EVQLVESGGGLVQPGGSLRLSCAASGFTFSDYAMSWVRQAPGKGLEWVSAISGSGGSHYYAASVKGRFTISRDNSKNTLYLQMNSLRAEDTAVYYCARKYRPSRVFDAWGQGTLVTVSS
VL: SYELTQPPSVSVAPGQTARITCSGDALHDKYAAWYQQKPGQAPVLVIYEDAKRPSGIPERFSGSNSGNTATLTISGTQAEDEADYYCQSNDADAVWVFGGGTKLTVLG
B8: CM-114 (antibody, human IgG4 S228P, lambda, V domains shown)
VH: EVQLVESGGGLVQPGGSLRLSCAASGFTFSSYAMSWVRQAPGKGLEWVSAISGSGGSHYYAASVKGRFTISRDNSKNTLYLQMNSLRAEDTAVYYCARKYRPSRVFDAWGQGTLVTVSS
VL: SYELTQPPSVSVAPGQTARITCSGDALGDKYASWYQQKPGQAPVLVIYEHHKRPSGIPERFSGSNSGNTATLTISGTQAEDEADYYCQSNDADAVWVFGGGTKLTVLG
B9: CM-109 (antibody, human IgG4 S228P, lambda, V domains shown)
VH: EVQLVESGGGLVQPGGSLRLSCAASGFTFSDYAMSWVRQAPGKGLEWVSAISGSGGSHYYAASVKGRFTISRDNSKNTLYLQMNSLRAEDTAVYYCARKYRPSRVFDAWGQGTLVTVSS
VL: SYELTQPPSVSVAPGQTARITCSGDALHDKYASWYQQKPGQAPVLVIYEHHKRPSGIPERFSGSNSGNTATLTISGTQAEDEADYYCQSNDADAVWVFGGGTKLTVLG
B10: CM-107 (antibody, human IgG4 S228P, lambda, V domains shown)
VH: EVQLVESGGGLVQPGGSLRLSCAASGFTFSDYAMSWVRQAPGKGLEWVSAISGSGGSHYYAASVKGRFTISRDNSKNTLYLQMNSLRAEDTAVYYCARKYRPSRVFDAWGQGTLVTVSS
VL: SYELTQPPSVSVAPGQTARITCSGDALGDKYASWYQQKPGQAPVLVIYEHHKRPSGIPERFSGSNSGNTATLTISGTQAEDEADYYCQSNDADAVWVFGGGTKLTVLG
B11: CM-113 (antibody, human IgG4 S228P, lambda, V domains shown)
VH: EVQLVESGGGLVQPGGSLRLSCAASGFTFSSYAMSWVRQAPGKGLEWVSAISGSGGSHYYAASVKGRFTISRDNSKNTLYLQMNSLRAEDTAVYYCARKYRPSRVFDAWGQGTLVTVSS
VL: SYELTQPPSVSVAPGQTARITCSGDALHDKYAAWYQQKPGQAPVLVIYEDAKRPSGIPERFSGSNSGNTATLTISGTQAEDEADYYCQSNDADAVWVFGGGTKLTVLG
B12: CM-108 (antibody, human IgG4 S228P, lambda, V domains shown)
VH: EVQLVESGGGLVQPGGSLRLSCAASGFTFSDYAMSWVRQAPGKGLEWVSAISGSGGSHYYAASVKGRFTISRDNSKNTLYLQMNSLRAEDTAVYYCARKYRPSRVFDAWGQGTLVTVSS
VL: SYELTQPPSVSVAPGQTARITCSGDALGDKYASWYQQKPGQAPVLVIYEDAKRPDGIPERFSGSNSGNTATLTISGTQAEDEADYYCQSNDADAYWVFGGGTKLTVLG
B13: CM-116 (antibody, human IgG4 S228P, lambda, V domains shown)
VH: EVQLVESGGGLVQPGGSLRLSCAASGFTFSDYAMSWVRQAPGKGLEWVSAISGSGGSTYYAASVKGRFTISRDNSKNTLYLQMNSLRAEDTAVYYCARKYRPSRVFDFWGQGTLVTVSS
VL: SYELTQPPSVSVAPGQTARITCSGDALGDKYASWYQQKPGQAPVLVIYEDAKRPSGIPERFSGSNSGNTATLTISGTQAEDEADYYCQSNDADAWWVFGGGTKLTVLG
B14: CM-117 (antibody, human IgG4 S228P, lambda, V domains shown)
VH: EVQLVESGGGLVQPGGSLRLSCAASGFTFSDYAMSWVRQAPGKGLEWVSAISGSGGSTYYAASVKGRFTISRDNSKNTLYLQMNSLRAEDTAVYYCARKYRPSRVFDCWGQGTLVTVSS
VL: SYELTQPPSVSVAPGQTARITCSGDALGDKYASWYQQKPGQAPVLVIYEDAKRPSGIPERFSGSNSGNTATLTISGTQAEDEADYYCQSNDADAWWVFGGGTKLTVLG

This assay addresses T1, human S100A8/A9 heterodimeric antigen, …. The assay is described as follows: cell-based or functional assay.
Turning to B1, the “Relative IC50 (IC50 relative to CM-1), IL-6 release from hS100A8/A9-activated human PBMCs” value (shortened to “Relative IC50”) was 1.76 relative to CM-1.

For the molecule B2, the “Relative IC50” value was 0.878 relative to CM-1.

With B3, the “Relative IC50” value is 0.738 relative to CM-1.

For the molecule B4, the “Relative IC50” value is 1.34 relative to CM-1.

Turning to B5, the “Relative IC50” value is 0.352 relative to CM-1.

Regarding B6, the “Relative IC50” value was 1.08 relative to CM-1.

Regarding B7, the “Relative IC50” value is 1.5 relative to CM-1.

On to B8, for which the “Relative IC50” value was 0.899 relative to CM-1.

As to B9, the “Relative IC50” value is 0.475 relative to CM-1.

In the case of B10, the “Relative IC50” value was 0.386 relative to CM-1.

Take B11: the “Relative IC50” value was 0.442 relative to CM-1.

Turning to B12, the “Relative IC50” value was 1.5 relative to CM-1.

With B13, the “Relative IC50” value is 0.986 relative to CM-1.

On to B14, for which the “Relative IC50” value was 0.367 relative to CM-1.

(Values after patent US20260184777A1 (BEIJING SUNGEN BIOMEDICAL TECHNOLOGY, published 2026).)
